Results reported in IntAct's records for PubMed 25938661.

B1: Hemojuvelin (Homo sapiens), Q6ZVN8-1 (parent)
chain: MGEPGQSPSPRSSHGSPPTLSTLTLLLLLCGHAHSQCKILRCNAEYVSSTLSLRGGGSSGALRGGGGGGRGGGVGSGGLCRALRSYALCTRRTARTCRGDLAFHSAVHGIEDLMIQHNCSRQGPTAPPPPRGPALPGAGSGLPAPDPCDYEGRFSRLHGRPPGFLHCASFGDPHVRSFHHHFHTCRVQGAWPLLDNDFLFVQATSSPMALGANATATRKLTIIFKNMQECIDQKVYQAEVDNLPVAFEDGSINGGDRPGGSSLSIQTANPGNHVEIQAAYIGTTIIIRQTAGQLSFSIKVAEDVAMAFSAEQDLQLCVGGCPPSQRLSRSERNRRGAITIDTARRLCKEGLPVEDAYFHSCVFDVLISGDPNFTVAAQAALEDARAFLPDLEKLHLFPSDAGVPLSSATLLAPLLSGLFVLWLCIQ
partner: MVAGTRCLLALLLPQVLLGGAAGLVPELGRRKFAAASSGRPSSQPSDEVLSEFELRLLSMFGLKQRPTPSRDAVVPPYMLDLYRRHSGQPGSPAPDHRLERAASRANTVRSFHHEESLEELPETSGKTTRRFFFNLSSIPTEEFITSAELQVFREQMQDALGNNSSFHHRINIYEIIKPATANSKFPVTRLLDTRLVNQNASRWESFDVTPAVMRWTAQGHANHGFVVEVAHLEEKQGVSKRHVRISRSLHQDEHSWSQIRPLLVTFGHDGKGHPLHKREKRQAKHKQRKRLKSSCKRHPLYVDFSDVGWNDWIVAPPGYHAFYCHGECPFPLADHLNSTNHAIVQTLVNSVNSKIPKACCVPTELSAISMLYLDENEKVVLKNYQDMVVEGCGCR
B2: Repulsive guidance molecule B (Homo sapiens), Q6NW40 (parent)
chain: MGLRAAPSSAAAAAAEVEQRRSPGLCPPPLELLLLLLFSLGLLHAGDCQQPAQCRIQKCTTDFVSLTSHLNSAVDGFDSEFCKALRAYAGCTQRTSKACRGNLVYHSAVLGISDLMSQRNCSKDGPTSSTNPEVTHDPCNYHSHAGAREHRRGDQNPPSYLFCGLFGDPHLRTFKDNFQTCKVEGAWPLIDNNYLSVQVTNVPVVPGSSATATNKITIIFKAHHECTDQKVYQAVTDDLPAAFVDGTTSGGDSDAKSLRIVERESGHYVEMHARYIGTTVFVRQVGRYLTLAIRMPEDLAMSYEESQDLQLCVNGCPLSERIDDGQGQVSAILGHSLPRTSLVQAWPGYTLETANTQCHEKMPVKDIYFQSCVFDLLTTGDANFTAAAHSALEDVEALHPRKERWHIFPSSGNGTPRGGSDLSVSLGLTCLILIVFL
partner: B1 partner

Variants of: B1
Settings: with bmp2_human BMP2, P12643
With G99R the “effect of a mutation on the interaction” value was “decreasing interaction strength”.
In the case of L101P, the “effect of a mutation on the interaction” value is reported as “decreasing interaction strength”.

Variants of: B2
Settings: with bmp2_human BMP2, P12643
H106R was tested, and the “effect of a mutation on the interaction” value was “decreasing interaction strength”.
